Literature values in PMC3901153.

Assays:
TLR4 (Homo sapiens) = TLR4 (Homo sapiens) (UniProt O00206)
RAGE (Homo sapiens) = RAGE (Homo sapiens) (UniProt Q15109)
UniProt Q15109, sequence (Q15109 23-404): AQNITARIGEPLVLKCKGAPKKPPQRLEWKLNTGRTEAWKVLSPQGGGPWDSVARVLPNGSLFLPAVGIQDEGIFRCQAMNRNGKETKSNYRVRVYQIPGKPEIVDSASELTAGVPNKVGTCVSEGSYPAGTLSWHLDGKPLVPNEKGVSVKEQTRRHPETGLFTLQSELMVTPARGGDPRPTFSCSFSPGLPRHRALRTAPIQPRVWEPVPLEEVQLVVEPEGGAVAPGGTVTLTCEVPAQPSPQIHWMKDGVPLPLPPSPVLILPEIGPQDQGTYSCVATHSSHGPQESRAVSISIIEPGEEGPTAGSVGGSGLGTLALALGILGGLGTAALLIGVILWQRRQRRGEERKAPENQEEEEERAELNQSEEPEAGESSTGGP

UniProt O00206, sequence (O00206 24-839): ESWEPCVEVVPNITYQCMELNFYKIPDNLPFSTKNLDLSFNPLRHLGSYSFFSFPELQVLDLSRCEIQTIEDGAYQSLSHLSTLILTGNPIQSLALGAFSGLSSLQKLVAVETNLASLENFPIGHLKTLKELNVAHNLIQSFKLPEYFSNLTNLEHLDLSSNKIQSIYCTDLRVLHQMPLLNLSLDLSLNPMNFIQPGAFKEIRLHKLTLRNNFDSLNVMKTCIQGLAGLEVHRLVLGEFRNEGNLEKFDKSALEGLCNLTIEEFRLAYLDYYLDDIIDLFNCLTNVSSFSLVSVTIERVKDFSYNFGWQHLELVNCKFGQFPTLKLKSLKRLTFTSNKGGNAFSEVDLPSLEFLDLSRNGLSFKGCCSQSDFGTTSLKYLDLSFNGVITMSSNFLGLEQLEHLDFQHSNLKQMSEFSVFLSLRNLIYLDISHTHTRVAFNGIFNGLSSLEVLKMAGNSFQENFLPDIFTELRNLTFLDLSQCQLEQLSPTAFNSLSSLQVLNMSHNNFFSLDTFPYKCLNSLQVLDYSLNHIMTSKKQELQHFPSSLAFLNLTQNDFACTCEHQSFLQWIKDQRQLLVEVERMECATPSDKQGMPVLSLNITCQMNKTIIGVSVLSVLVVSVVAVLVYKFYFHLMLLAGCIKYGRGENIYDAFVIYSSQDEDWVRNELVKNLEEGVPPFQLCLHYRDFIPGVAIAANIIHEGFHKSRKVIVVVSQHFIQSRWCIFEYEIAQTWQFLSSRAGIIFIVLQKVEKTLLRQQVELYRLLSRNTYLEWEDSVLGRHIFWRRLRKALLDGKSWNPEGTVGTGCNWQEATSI

- Kd (TLR4 (Homo sapiens)): 1500 nM
- Kd (RAGE (Homo sapiens)): 10 nM
Substance: HMGB1 (from UniProt P09429)
